Experimental findings from paper PMC10616847 are described below.

The kon is the second-order rate constant of association.

In test [1] the target is thrombin-specific peptide with the cleavage site.
Test [2] has the same target. The test is described as follows: single-particle plasmon sensing (dark-field scattering microscopy of gold nanorods); same sensor; standard deviation of the start time t0 of cleavage among particles against thrombin concentration, fitted with Poisson statistics of the waiting time for the first enzyme to bind to a particle; additional uncertainty of 20 s allowed.
For test [3] the target is unchanged. In words: single-particle plasmon sensing (dark-field scattering microscopy of gold nanorods); peptide held on gold nanorods on a coverslip in a flow cell; thrombin 1-300 nM injected at 5 uL/min in 50 mM Tris-HCl, 10 mM CaCl2, 150 mM NaCl, pH 8.4; rate constants of a three-stage kinetic model adjusted to match the plasmon-shift time traces.

Sequence of thrombin-specific peptide with the cleavage site (peptide, as listed by the source): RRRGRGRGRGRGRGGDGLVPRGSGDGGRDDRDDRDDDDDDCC

Consider active thrombin (enzyme), for which, in test [1], the peptide cleavage rate kb from the kinetic model matched to the plasmon-shift time traces is 0.01 s^–1. The on-rate (kon) in test [2] was 100000 M⁻¹ s⁻¹; in test [3] it was 200000 M⁻¹ s⁻¹.
